Target: Class C scavenger receptor of Marsupenaeus japonicus (MjSRC), native protein of hemocytes (Marsupenaeus japonicus (endogenous in hemocytes))
Assay: cross-linking; hemocytes collected 30 min after injection of WSSV or PBS, 5 mM BS3 at 4°C for 1 h in PBS pH 8.0, quenched with Tris-HCl; SDS-PAGE and western blotting with anti-MjSRC sera; oligomer size by molecular mass

Class C scavenger receptor of Marsupenaeus japonicus (MjSRC), native protein of hemocytes (from UniProt A0A1L2DC21 1-692)
stoichiometry N: 3
